From PMC5912465 (2018) come the findings set out here.

B1: CCL3 (ligand)
chain: SLAADTPTACCFSYTSRQIPQNFIADYFETSSQCSKPGVIFLTKRSRQVCADPSEEWVQKYVSDLELSA
B2: N-terminally tagged P672 (P672_RHIPU), glycosylated (natural protein)
chain: VCEVSEQEGVGEDNATEDEDYEDFFKPVTCYFANSTVGPLRPPNCTVVCTNNTAWWNDTKSDGGHCYSEYRPEKRTHSREIYNCTIGVCGNGTCIANHTYADCW
modifications: N-glycosylated (six N-glycosylated residues identified by mass spectrometry, Asn-34 among them; marked in Figure 2A)
B3: CCL14 (ligand)
chain: TKTESSSRGPYHPSECCFTYTTYKIPRQRIMDYYETNSQCSKPGIVFITKRGHSVCTNPSDKWVQDYIKDMKEN
B4: CCL4L1 (ligand)
chain: APMGSDPPTACCFSYTARKLPRNFVVDYYETSSLCSQPAVVFQTKRGKQVCADPSESWVQEYVYDLELN
B5: CCL4 (ligand)
chain: B4 chain with G47S
B6: CCL3L1 (ligand)
chain: APLAADTPTACCFSYTSRQIPQNFIADYFETSSQCSKPSVIFLTKRGRQVCADPSEEWVQKYVSDLELSA
B7: CCL18 (ligand)
chain: AQVGTNKELCCLVYTSWQIPQKFIVDYSETSPQCPKPGVILLTKRGRQICADPNKKWVQKYISDLKLNA
B8: C-terminally tagged P672 (P672_RHIPU), glycosylated (natural protein)
chain: ETGVCEVSEQEGVGEDNATEDEDYEDFFKPVTCYFANSTVGPLRPPNCTVVCTNNTAWWNDTKSDGGHCYSEYRPEKRTHSREIYNCTIGVCGNGTCIANHTYADCW
modifications: glycosylated
B9: CCL8 (human chemokine panel) (ligand)
chain: QPDSVSIPITCCFNVINRKIPIQRLESYTRITNIQCPKEAVIFKTKRGKEVCADPKERWVRDSMKHLDQIFQNLKP

Numbering of substitutions follows the chain as printed.

For assay [1], the target named is evasin 1 (EVA1_RHISA), C-terminally tagged (Rhipicephalus sanguineus, UniProt P0C8E7 21-114, K92N). The assay can be described thus: BLI. (In general: BLI is a label-free optical method that tracks binding on a fibre tip over time.)
Assay [2] deals with CCL11 (human, UniProt P51671 24-97). Kind of assay: BLI.
The target in assay [3] is B9. Kind of assay: BLI.
Assay [4] has as its target T1, CCL16 (human, UniProt O15467 24-120).
T1 chain: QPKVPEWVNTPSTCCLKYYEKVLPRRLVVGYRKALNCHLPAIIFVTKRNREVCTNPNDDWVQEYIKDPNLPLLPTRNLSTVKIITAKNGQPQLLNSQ
Kind of assay: BLI.

In assay [5] the target is B1. The assay can be described thus: BLI.
Assay [6] addresses T2, CCL1 (human, UniProt P22362 24-96).
T2 chain: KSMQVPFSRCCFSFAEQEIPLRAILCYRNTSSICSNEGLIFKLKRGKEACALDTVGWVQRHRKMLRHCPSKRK
Kind of assay: BLI.

For assay [7], the target named is B7. The assay can be described thus: BLI.
In assay [8] the target is T3, CCL23 (human, UniProt P55773 22-120).
T3 chain: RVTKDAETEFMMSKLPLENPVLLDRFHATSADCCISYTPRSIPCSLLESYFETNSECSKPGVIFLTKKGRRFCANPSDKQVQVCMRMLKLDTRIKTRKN
Kind of assay: BLI.

In assay [9] the target is CCL7 (human, UniProt P80098 24-99). The assay can be described thus: BLI.
Assay [10] addresses CCL2 (human, UniProt P13500 24-99). Kind of assay: BLI.
Assay [11] has as its target B3. The assay can be described thus: BLI.
The target in assay [12] is T4, CCL15 (human, UniProt Q16663 22-113).
T4 chain: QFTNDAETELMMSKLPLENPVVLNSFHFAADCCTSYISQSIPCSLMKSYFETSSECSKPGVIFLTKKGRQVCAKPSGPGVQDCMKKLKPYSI
The assay can be described thus: BLI.

The target in assay [13] is B6. The assay can be described thus: BLI.
In assay [14] the target is CCL13 (human, UniProt Q99616 17-98). The assay can be described thus: BLI.
In assay [15] the target is P672(1_44)-EVA1(29_94) hybrid evasin (Rhipicephalus pulchellus | …, UniProt L7MC74;P0C8E7, K92N). Kind of assay: BLI.
Assay [16] deals with other, more extended hybrid molecules (P672_EVA1 hybrids). The assay can be described thus: BLI; P672(1_66):EVA1(47_94).
Assay [17] has the same target. Kind of assay: BLI; P672(1_92):EVA1(74_94).

Sequence of CCL11 (P51671 24-97): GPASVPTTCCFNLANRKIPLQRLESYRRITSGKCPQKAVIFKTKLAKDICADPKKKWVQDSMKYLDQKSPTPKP
Sequence of CCL7 (P80098 24-99): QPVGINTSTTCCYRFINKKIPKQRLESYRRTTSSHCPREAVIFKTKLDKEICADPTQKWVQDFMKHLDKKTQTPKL
Sequence of CCL13 (Q99616 17-98): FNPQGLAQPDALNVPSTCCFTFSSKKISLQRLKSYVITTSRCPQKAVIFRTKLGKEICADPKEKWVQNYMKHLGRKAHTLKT

What is called Kd is the equilibrium constant for the complex coming apart. Higher therefore signals a looser complex. Molecule B1 gave a Kd in assay [1] of 7.3 nM.
Take B2: the Kd in assay [2] stood at 2.29 nM; in [3], 8.51 nM; in assay [4], 9.6 nM; in assay [5], 0.954 nM; in assay [6], 11 nM; in assay [7], 1.62 nM. For the same molecule, the Kd in assay [8] was 4.56 nM; in assay [9] it was 18.6 nM; in assay [10], 21 nM; in [11], 5.5 nM; in assay [12], 31.5 nM; in assay [13], 1.63 nM. This molecule also had a Kd in [14] of 7.6 nM.
The molecule B3 gave a Kd in assay [1] of 108 nM.
Same read-out and setting: with B4 the figure was 77.9 nM; with B5, 233 nM.
The same measure, in the same setting: then B6, with 22.4 nM.
As for B7, the Kd in [1] came to 2.02 nM; in assay [15], 6.45 nM; in [16], 3.69 nM; in assay [17], 9.75 nM.
For B8, the Kd in [3] was 16.4 nM; in assay [5], 13 nM; in assay [7], 0.9 nM; in assay [8], 9.7 nM; in assay [13], 5.7 nM.
In the case of B9, the Kd was determined as 216 nM in assay [15], 277 nM in assay [16] and 397 nM in assay [17].
